Results taken from patent US20150064731A1 (PROMEGA, published 2015).

Target: the molecule itself
Assay: gel filtration chromatography (Superdex 200 5/150 GL) of the purified protein; self-association
Excerpt: Gel filtration analysis was used to verify the expected molecular weight of the purified OgLuc proteins based on the theoretical values and consequently to determine their oligomeric state. A comparison between the relative hydrodynamic volume of the OgLuc variants C1+A4E and 9B8 was made by gel filtration chromatography. For this analysis, the nucleotide sequence for the OgLuc variants, C1+A4E and 9B8, were cloned into a HQ-Tagged Flexi® Vector (Promega Corp.) to create a HQHQHQ (SEQ ID NO: 580) N-terminally tagged protein that was overexpressed in E. coli KRX cells. The overexpressed proteins were purified using the HisLink™ Protein Purification System (Promega Corp.) according to manufacturer's instructions. Samples of each individual standard and sample protein were analyzed by gel filtration chromatography, which was performed at 24° C. on an Agilent 1200 HPLC, using a Superdex 200 5/150 GL column (GE Healthcare) with a flow rate of 0.25 mL/min (FIGS. 43A-B). The mobile phase (i.e., running buffer) consisted of 50 mM Tris and 150 mM NaCl, pH 7.5. Protein elution was monitored at 214 and 280 nm. A standard calibration curve was generated using: 1) Ovalbumin, 43 kDa (GE Healthcare), 2) Carbonic Anhydrase, 29 kDa (Sigma) and 3) Myoglobin, 17 kDa (Horse Heart, Sigma). The molecular weights of the purified proteins were calculated directly from the calibration curve.

B1: OgLuc variant 9B8, HQHQHQ N-terminally tagged (enzyme)
chain: HQHQHQFTLEDFVGDWRQTAGYNLDQVLEQGGLSSLFQKLGVSVTPIQKIVLSGENGLKIDIHVIIPYEGLSGYQMGQIEKIFKVVYPVDDHHFKVILHYGTLVIDGVTPNMIDYFGRPYEGIAVFDGKKITVTGTLWNGNKIIDERLINPDGSLLFRVTINGVTGWRLCERILA
notes: Overexpressed in E. coli KRX and purified with the HisLink Protein Purification System for gel filtration
binding result: no binding
